Assay results published in paper doi:10.1101/2025.08.05.668778 (bioRxiv, 2025).

What was measured:
[1] = biological target: T1, factor H (intact) (human, UniProt P08603 19-1231); assay: ELISA; M, Enn or FbaA protein coated on wells (20 μg/ml in PBS pH 7.2, overnight 4 °C); soluble intact factor H 10 μg/ml, 1 h, RT; bound FH detected with mouse monoclonal anti-human FH and HRP anti-mouse IgG; uncoated wells subtracted; values normalized to wild type; conditions: both partners purified
T1 construct: also called FH; intact FH; source: bought: Complement Technology

[2] = biological target: the molecule itself; assay: crystal structure

T1 sequence (P08603 19-1231): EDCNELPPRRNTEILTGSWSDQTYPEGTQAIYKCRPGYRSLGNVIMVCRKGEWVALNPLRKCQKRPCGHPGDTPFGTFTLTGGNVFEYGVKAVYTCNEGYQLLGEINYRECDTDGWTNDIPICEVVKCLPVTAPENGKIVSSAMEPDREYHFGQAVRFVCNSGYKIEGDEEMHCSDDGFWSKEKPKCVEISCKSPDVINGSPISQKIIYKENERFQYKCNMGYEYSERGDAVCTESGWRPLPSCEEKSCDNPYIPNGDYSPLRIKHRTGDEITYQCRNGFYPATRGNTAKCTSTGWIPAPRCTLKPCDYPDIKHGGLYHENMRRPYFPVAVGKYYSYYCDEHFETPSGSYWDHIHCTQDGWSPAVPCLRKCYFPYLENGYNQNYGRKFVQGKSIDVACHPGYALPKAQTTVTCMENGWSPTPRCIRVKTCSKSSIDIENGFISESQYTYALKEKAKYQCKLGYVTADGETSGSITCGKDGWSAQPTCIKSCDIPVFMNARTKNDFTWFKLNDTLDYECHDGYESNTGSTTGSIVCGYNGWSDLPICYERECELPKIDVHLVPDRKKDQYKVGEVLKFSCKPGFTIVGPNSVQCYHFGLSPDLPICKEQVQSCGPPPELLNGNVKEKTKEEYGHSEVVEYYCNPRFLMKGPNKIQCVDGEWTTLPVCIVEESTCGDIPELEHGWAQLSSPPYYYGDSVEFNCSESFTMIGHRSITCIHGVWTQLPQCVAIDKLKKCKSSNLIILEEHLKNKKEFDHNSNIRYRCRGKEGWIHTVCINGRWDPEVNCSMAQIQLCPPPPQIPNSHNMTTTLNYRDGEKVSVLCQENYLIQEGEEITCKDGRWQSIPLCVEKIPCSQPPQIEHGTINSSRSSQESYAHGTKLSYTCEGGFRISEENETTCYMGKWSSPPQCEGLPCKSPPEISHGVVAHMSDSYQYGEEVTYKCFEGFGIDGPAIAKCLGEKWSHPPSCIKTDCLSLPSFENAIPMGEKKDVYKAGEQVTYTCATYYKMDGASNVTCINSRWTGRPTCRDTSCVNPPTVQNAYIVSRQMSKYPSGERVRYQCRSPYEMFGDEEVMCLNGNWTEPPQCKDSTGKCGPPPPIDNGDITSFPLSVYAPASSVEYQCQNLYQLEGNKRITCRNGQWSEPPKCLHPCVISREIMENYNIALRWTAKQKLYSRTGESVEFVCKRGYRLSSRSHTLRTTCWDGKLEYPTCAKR

Binder | binding result [1] | stoichiometry N [2]
M6 protein, intact wild type (aa 43–452) (natural protein, source: E. coli BL21 (Gold), purified; not shown: His6, C-terminal, kept) RVFPRGTVENPDKARELLNKYDVENSMLQANNDKLTTENNNLTDQNKNLTTENKNLTDQNKNLTTENKNLTDQNKNLTTENKELKAEENRLTTENKGLTKKLSEAEEEAANKERENKEAIGTLKKTLDETVKDKIAKEQESKETIGTLKKTLDETVKDKIAKEQESKETIGTLKKTLDETVKDKIAKEQESKETIGTLKKILDETVKDKIAREQKSKQDIGALKQELAKKDEGNKVSEASRKGLRRDLDASREAKKQVEKDLANLTAELDKVKEEKQISDASRQGLRRDLDASREAKKQVEKALEEANSKLAALEKLNKELEESKKLTEKEKAELQAKLEAEAKALKEQLAKQAEELAKLRAGKASDSQTPDAKPGNKVVPGKGQAPQAGTKPNQNKAPMKETKRQLPST | binds | –
M5 protein fragment (aa 94–175) (domain or fragment, source: E. coli BL21 (Gold), purified) NEGLKTEKKEHEAENDKLKQQRDTLSTQKETLEREVQNTQYNNETLKIKNGDLTKELNKTRQELANKQQESKENEKALNELL | – | 2
FbaA (57–130), wild type (domain or fragment, source: E. coli BL21 (Gold), purified; not shown: His6, N-terminal, kept) NWHHIDKDGLIPLGISLEAAKEEFKKEVEESRLSEAQKETYKQKIKTAPDKDKLLFTYHSEYMTAVKDLPASTE | binds | –
M6 protein fragment (aa 74–157) (domain or fragment, source: E. coli BL21 (Gold), purified) NDKLTTENNNLTDQNKNLTTENKNLTDQNKNLTTENKNLTDQNKNLTTENKELKAEENRLTTENKGLTKKLSEAEEEAANKERE | – | 2
M5 protein, intact wild type (aa 43–377) (natural protein, source: E. coli BL21 (Gold), purified; not shown: His6, C-terminal, kept) AVTRGTINDPQRAKEALDKYELENHDLKTKNEGLKTENEGLKTENEGLKTENEGLKTEKKEHEAENDKLKQQRDTLSTQKETLEREVQNTQYNNETLKIKNGDLTKELNKTRQELANKQQESKENEKALNELLEKTVKDKIAKEQENKETIGTLKKILDETVKDKIAKEQENKETIGTLKKILDETVKDKLAKEQKSKQNIGALKQELAKKDEANKISDASRKGLRRDLDASREAKKQLEAEHQKLEEQNKISEASRKGLRRDLDASREAKKQLEAEQQKLEEQNKISEASRKGLRRDLDASREAKKQVEKALEEANSKLAALEKLNKELEESKK | binds | –
